The test has as its target Ptch1-GFP (mouse) (UniProt Q61115). The experiment in a line: cell surface binding assay.
UniProt Q61115, sequence (Q61115 whole entry): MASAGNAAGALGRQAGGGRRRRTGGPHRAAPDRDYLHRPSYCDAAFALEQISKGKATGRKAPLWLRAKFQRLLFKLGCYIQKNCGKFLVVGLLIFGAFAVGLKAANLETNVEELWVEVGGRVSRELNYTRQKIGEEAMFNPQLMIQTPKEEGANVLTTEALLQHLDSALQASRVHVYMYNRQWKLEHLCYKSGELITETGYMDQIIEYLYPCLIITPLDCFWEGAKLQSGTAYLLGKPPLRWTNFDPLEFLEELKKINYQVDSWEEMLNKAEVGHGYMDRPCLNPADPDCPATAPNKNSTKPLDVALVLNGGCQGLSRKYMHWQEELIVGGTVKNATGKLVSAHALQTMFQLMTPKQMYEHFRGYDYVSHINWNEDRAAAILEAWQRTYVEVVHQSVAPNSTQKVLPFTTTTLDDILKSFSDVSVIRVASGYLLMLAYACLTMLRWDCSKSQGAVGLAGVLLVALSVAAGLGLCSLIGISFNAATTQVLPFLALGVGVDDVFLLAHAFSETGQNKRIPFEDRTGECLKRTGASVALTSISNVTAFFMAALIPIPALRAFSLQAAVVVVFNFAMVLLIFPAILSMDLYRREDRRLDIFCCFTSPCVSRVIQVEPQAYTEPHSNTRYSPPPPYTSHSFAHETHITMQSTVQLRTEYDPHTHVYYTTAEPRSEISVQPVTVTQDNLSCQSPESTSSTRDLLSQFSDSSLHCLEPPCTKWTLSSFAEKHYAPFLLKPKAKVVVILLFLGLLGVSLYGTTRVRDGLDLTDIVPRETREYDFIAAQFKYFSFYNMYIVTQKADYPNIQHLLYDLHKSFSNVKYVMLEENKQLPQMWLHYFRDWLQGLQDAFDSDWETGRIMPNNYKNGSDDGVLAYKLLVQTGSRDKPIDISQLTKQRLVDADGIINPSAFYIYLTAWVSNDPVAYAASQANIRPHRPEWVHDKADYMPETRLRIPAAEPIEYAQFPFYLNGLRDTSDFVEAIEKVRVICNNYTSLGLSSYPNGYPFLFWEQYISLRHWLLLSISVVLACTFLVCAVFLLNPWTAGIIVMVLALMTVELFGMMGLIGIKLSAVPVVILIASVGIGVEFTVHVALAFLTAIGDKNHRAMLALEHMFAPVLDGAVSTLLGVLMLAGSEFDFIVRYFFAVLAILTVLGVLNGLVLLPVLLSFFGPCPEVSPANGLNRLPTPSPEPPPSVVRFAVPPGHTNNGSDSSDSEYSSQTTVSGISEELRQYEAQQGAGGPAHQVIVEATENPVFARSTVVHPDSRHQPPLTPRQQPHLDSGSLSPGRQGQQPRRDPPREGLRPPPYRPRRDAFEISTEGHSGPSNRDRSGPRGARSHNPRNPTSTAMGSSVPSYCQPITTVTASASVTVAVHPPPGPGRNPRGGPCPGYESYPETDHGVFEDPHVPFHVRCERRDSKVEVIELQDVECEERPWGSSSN

For “Boc-Fc construct containing the FNIIIa domain alone (Fc fusion)”, the binding relative to Boc ecto-Fc came to 60%.
With “Boc-Fc construct containing the FNIIIb domain alone (Fc fusion)” the figure was 60%.

The values above are taken from article PMC3432913.
